Source: paper PMC8567388 (iScience, 2021)
Each block holds one binder with its values, some of them ahead of it. Ends that are not written are not given here.

Assays:
[1] = biological target: T1, PSD-95 61-724 6xHis pSer73 (human, UniProt P78352 61-724, phosphoserine at 73); assay: fluorescence polarisation
PSD-95 61-724 6xHis [2] = biological target: T2, PSD-95 61-724 6xHis (human, UniProt P78352 61-724); assay: fluorescence polarisation
[3] = biological target: T1, PSD-95 61-724 6xHis pSer73; assay: co-sedimentation
[4] = biological target: T3, PSD-95 61-724 6xHis pSer142 (human, UniProt P78352 61-724, phosphoserine at 142); assay: co-sedimentation
PSD-95 61-724 6xHis [5] = biological target: T2, PSD-95 61-724 6xHis; assay: co-sedimentation
[6] = biological target: T3, PSD-95 61-724 6xHis pSer142; assay: fluorescence polarisation

- binding result [1]: binds
- binding result (PSD-95 61-724 6xHis [2]): binds
Binder: {TAMRA}-NNGKKMPSIESDV [Peptide ligand: GluN2A (TAMRA-NNG-KKMPSIESDV)]

- binding result [3]: binds
- binding result [4]: binds
- binding result (PSD-95 61-724 6xHis [5]): binds
B1: GluN2B cytoplasmic tail (aa 1170-1482) (domain or fragment)
chain: GGPCTNRSHLKHGTGEKHGVVGGVPAPWEKNLTNVDWEDRSGGNFCRSCPSKLHNYSSTVAGQNSGRQACIRCEACKKAGNLYDISEDNSLQELDQPAAPVAVTSNASSTKYPQSPTNSKAQKKNRNKLRRQHSYDTFVDLQKEEAALAPRSVSLKDKGRFMDGSPYAHMFEMPAGESSFANKSSVPTAGHHHNNPGSGYMLSKSLYPDRVTQNPFIPTFGDDQCLLHGSKSYFFRQPTVAGASKTRPDFRALVTNKPVVVTLHGAVPGRFQKDICIGNQSNPCVPNNKNPRAFNGSSNGHVYEKLSSIESDV

- Kd (PSD-95 61-724 6xHis [2]): 2700 nM
Binder: {TAMRA}-NNGNTANRRTTPV [Peptide ligand: Stargazin (TAMRA-NNG-NTANRRTTPV)]

- Kd (PSD-95 61-724 6xHis [2]): 1200 nM
Binder: {TAMRA}-NNGYEKLSSIESDV [Peptide ligand: GluN2B (TAMRA-NNG-YEKLSSIESDV)]

- binding result [6]: binds
- binding result (PSD-95 61-724 6xHis [2]): binds
Binder: {TAMRA}-NNGPAGKHMVTEV [Peptide ligand: Kv1.7 (TAMRA-NNG-PAGKHMVTEV)]

- binding result [6]: binds
- binding result (PSD-95 61-724 6xHis [2]): binds
Binder: {TAMRA}-NNGSNAKAVETDV [Peptide ligand: Kv1.4 (TAMRA-NNG-SNAKAVETDV)]
